Experimental data published in patent publication US20260234234A1 (QILU PUGET SOUND BIOTHERAPEUTICS, published 2026).

T1: His6-tagged cyIL-33 (Ser112-Ile270), QB10976 (cynomolgus monkey)
T1 construct: Entry includes N-terminal Avitag, FLAG and His6 tags; isoform X1, NCBI XP_005581824; also called cyIL-33 antigen
T1 chain: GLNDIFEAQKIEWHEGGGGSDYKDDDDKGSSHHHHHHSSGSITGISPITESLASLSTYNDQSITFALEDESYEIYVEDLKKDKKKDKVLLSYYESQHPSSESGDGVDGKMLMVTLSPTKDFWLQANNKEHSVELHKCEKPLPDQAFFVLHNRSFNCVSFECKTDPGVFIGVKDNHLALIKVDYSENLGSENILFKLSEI

T2: Avitag_c-MYC_His6-tagged hIL-33 (Ser112-Thr270), QB10975 (human)
T2 construct: Entry includes N-terminal Avitag, c-MYC and His6 tags; reduced with DTT to the active form; also called active hIL-33; reduced hIL-33
T2 chain: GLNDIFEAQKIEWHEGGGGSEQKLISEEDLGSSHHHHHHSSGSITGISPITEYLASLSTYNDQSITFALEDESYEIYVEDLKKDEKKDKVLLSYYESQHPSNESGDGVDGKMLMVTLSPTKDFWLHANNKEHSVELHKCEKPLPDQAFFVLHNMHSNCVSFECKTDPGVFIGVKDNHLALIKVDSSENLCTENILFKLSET


Tests used:
[1] = biological target: T1, His6-tagged cyIL-33 (Ser112-Ile270), …; experiment: SPR, captured antibody, cyIL-33 analyte, 25 C, 1:1 fit
Method: (§1) The polyclonal goat-anti-human IgG (Fc specific) antibodies were immobilized on a CM4 chip surface using a standard amine coupling method. […] After each cycle, the chip was regenerated with 10 mM glycine-HCl, pH 1.5. The results were analyzed using Biacore T200 evaluation software V3.2. Results were double referenced and fit to a 1:1 interaction model.
(§2) The kinetic binding data was obtained using SPR on a Biacore T200 equipment. […] The complex was allowed to associate for 3 min and dissociate for up to 1 hr. At the end of each cycle the CM4 chips were regenerated with 10 mM glycine pH1.5. The T200 Evaluation software V3.2 was used to align and double reference the data.

[2] = biological target: T2, Avitag_c-MYC_His6-tagged hIL-33 …; experiment: SPR competition, antibody titrated against 10 nM hIL-33, over immobilised hST2-Fc
Method: Assessment was performed by SPR (Surface Plasmon Resonance) using Biacore 2000.
The association time was set for 2 min and the dissociation time for 5 min.

[3] = biological target: T2, Avitag_c-MYC_His6-tagged hIL-33 …; experiment: SPR, captured antibody, hIL-33 analyte, 37 C, 1:1 fit
Method: as §1, §2

[4] = biological target: T3, Avitag_c-MYC_His6_hTSLP QB11631 with mutations of R127A + R130S (human); experiment: SPR (Biacore)
T3 construct: Substitutions and tags already in the entry; also called hTSLP (R127A+R130S)

[5] = biological target: T4, cyTSLP antigen, version not stated (cynomolgus monkey, UniProt A0A7N9CAT7 29-159); experiment: SPR (Biacore)
T4 construct: Used where the text only says cyTSLP

[6] = biological target: T3, Avitag_c-MYC_His6_hTSLP QB11631 with …; experiment: SPR (Biacore), hTSLP (R127A+R130S) antigen

| Binder | Kd [1] [nM] | koff [1] [s⁻¹] | kon [1] [M⁻¹ s⁻¹] | IC50 [2] [nM] | Kd [3] [nM] | koff [3] [s⁻¹] | kon [3] [M⁻¹ s⁻¹] | fold lower binding affinity against comparator QB10985 [4] [fold] | fold binding difference between hTSLP and cyTSLP [5] [fold] | Kd [6] [nM] | koff [6] [s⁻¹] | kon [6] [M⁻¹ s⁻¹] |
| --- | --- | --- | --- | --- | --- | --- | --- | --- | --- | --- | --- | --- |
| humanized anti-hIL-33 antibody QB11004 (antibody, human IgG1, kappa, V domains shown) VH: EVQLLESGGGLVQPGGSLRLSCAASGFTFYSSAMSWVRQTQGKGLEWVSTISSGGSNTYYPDSVKGRFTISRDNSKNTLYLQMNSLGAEDTAVYYCASAYYGRRYDAMDYWGQGTLVTVSS VL: DVVMTQSPPSLPVTLGQSASISCKSSKSLLHSNGNTYLYWFQQRPGQSPQLLIYRMSNLASGVPDRFSGSGSGTDFTLKISRVEAEDVGVYYCMQHLENPYTFGQGTKVEIKR | 6.22 | 0.000992 | 160000 | 0.927 | 0.387 | 0.000628 | 1.62e+06 |  |  |  |  |  |
| anti-hIL-33 antibody QB11061 (antibody, human IgG1, kappa, V domains shown, QB11004 with Q41P in VH-FW2) VH: EVQLLESGGGLVQPGGSLRLSCAASGFTFYSSAMSWVRQTPGKGLEWVSTISSGGSNTYYPDSVKGRFTISRDNSKNTLYLQMNSLGAEDTAVYYCASAYYGRRYDAMDYWGQGTLVTVSS VL: DVVMTQSPPSLPVTLGQSASISCKSSKSLLHSNGNTYLYWFQQRPGQSPQLLIYRMSNLASGVPDRFSGSGSGTDFTLKISRVEAEDVGVYYCMQHLENPYTFGQGTKVEIKR | 4.75 | 0.000893 | 188000 |  | 0.306 | 0.000567 | 1.85e+06 |  |  |  |  |  |
| anti-hTSLP QB11060, humanized antibody clone hz-3C-V6 (antibody, human IgG4 S228P, kappa, V domains shown, hz-3C with D9P + S108L in the VH) VH: QVQLVQSGPEVKKPGSSVKVSCKASGYIFTDYAMHWVRQRPGQGLEWMGTFIPLLDTSDYNQNFKGRATITADKSTSTAYMELSSLRSEDTAVYYCARMGVTHSYVMDAWGQGTLVTVSS VL: EIVLTQSPGTLSLSPGERATLSCRASQPISISVHWYQQKPGEAPRLLIYFASQSISGIPDRFSGSGSGTDFTLTISRLESEDFAVYYCQQTFSLPYTFGTGTKVEIKR |  |  |  |  |  |  |  | 8.8 | < 10 | 1.62 | 0.000852 | 527000 |
| anti-hIL-33 antibody QB11119 (antibody, human IgG1, kappa, L234A L235A, V domains shown, hIgG1 with L234A+L235A+P329A; G29A in the VL against QB11061; also called parental antibody QB11119) VH: EVQLLESGGGLVQPGGSLRLSCAASGFTFYSSAMSWVRQTQGKGLEWVSTISSGGSNTYYPDSVKGRFTISRDNSKNTLYLQMNSLGAEDTAVYYCASAYYGRRYDAMDYWGQGTLVTVSS VL: DVVMTQSPPSLPVTLGQSASISCKSSKSLLHSNANTYLYWFQQRPGQSPQLLIYRMSNLASGVPDRFSGSGSGTDFTLKISRVEAEDVGVYYCMQHLENPYTFGQGTKVEIKR | 15.8 | 0.00206 | 131000 |  | 0.397 | 0.000604 | 1.52e+06 |  |  |  |  |  |
